Results taken from article PMC11254670, “Soluble CD72, is a T-cell activator probably via binding to CD6 in homeostasis and autoimmunity” (Frontiers in Immunology, 2024).

Target: T1, CD6 (human (endogenous in CD4+ T cells), UniProt P30203 18-668)
T1 sequence (looked up): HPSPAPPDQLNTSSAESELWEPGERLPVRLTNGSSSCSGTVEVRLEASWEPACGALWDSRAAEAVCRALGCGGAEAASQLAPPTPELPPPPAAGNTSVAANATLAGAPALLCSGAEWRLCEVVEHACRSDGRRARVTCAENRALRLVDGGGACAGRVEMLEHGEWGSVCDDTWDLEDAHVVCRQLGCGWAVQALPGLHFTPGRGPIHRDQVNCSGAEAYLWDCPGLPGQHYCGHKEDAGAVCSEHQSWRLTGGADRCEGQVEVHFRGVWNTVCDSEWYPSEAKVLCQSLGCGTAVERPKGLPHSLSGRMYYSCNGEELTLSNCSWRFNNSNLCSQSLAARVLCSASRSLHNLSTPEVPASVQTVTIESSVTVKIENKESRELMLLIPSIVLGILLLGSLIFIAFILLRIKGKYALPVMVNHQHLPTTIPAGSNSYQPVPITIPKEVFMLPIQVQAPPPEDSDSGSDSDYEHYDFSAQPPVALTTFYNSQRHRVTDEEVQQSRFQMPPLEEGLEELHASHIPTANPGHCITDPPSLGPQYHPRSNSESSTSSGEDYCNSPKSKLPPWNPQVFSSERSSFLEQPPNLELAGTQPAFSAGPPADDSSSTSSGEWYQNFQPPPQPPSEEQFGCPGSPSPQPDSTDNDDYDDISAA
Test: cell-based or functional assay

B1: soluble CD72 (extracellular part of human CD72, amino acids 117-359, V5 and 8xHis tagged) (domain or fragment, UniProt P21854 117-359, looked up)
chain: RYLQVSQQLQQTNRVLEVTNSSLRQQLRLKITQLGQSAEDLQGSRRELAQSQEALQVEQRAHQAAEGQLQACQADRQKTKETLQSEEQQRRALEQKLSNMENRLKPFFTCGSADTCCPSGWIMHQKSCFYISLTSKNWQESQKQCETLSSKLATFSEIYPQSHSYYFLNSLLPNGGSGNSYWTGLSSNKDWKLTDDTQRTRTYAQSSKCNKVHKTWSWWTLESESCRSSLPYICEMTAFRFPD
- phosphorylation of SLP-76 (Ser376), phospho/total ratio by western blot, activated CD4+ T cells stimulated with 2 ug/ml sCD72 against control: ~2 fold
